{"source": "paper PMC10279920", "about": "“Single-molecule visualization of Pif1 helicase translocation on single-stranded DNA” (The Journal of Biological Chemistry, 2023)", "experiment_in_all_cases": "EMSA; no ATP, 5 mM Mg2+; 35 mM Tris-HCl pH 7.5, 1 mM DTT, 5 mM MgCl2, 60 mM KCl, 0.1 mg/ml BSA, no ATP, 30 min at 30 C; 5 nM ssDNA", "details_in_all_cases": "protein: recombinant; tags: N-terminal superfolder GFP; Ni-NTA purified; label: 5' Alexa647", "key": {"[1]": {"target": "T1, Pif1 WT (GFP-Pif1) (Saccharomyces cerevisiae, UniProt P07271 40-859)", "T1 sequence": "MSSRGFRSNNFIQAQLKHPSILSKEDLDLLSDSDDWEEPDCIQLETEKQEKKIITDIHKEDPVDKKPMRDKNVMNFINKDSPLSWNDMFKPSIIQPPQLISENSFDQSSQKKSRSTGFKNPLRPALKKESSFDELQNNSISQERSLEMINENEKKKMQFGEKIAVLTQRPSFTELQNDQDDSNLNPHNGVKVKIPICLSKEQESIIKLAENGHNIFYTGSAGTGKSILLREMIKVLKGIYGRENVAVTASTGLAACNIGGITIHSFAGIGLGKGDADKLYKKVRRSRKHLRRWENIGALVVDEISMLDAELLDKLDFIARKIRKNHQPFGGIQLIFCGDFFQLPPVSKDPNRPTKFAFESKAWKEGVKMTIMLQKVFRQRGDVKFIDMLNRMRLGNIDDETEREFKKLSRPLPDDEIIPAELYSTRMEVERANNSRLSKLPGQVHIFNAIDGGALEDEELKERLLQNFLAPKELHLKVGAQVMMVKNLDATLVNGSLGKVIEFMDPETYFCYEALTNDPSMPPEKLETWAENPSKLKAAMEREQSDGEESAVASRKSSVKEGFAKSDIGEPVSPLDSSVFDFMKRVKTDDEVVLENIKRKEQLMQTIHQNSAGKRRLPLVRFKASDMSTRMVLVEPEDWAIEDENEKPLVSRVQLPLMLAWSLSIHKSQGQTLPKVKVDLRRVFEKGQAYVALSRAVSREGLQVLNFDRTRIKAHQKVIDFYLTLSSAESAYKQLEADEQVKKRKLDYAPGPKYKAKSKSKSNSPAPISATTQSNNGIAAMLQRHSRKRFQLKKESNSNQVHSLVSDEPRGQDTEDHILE"}, "[2]": {"target": "T2, GFP-Pif1 E724A (Saccharomyces cerevisiae, UniProt P07271 40-859, E724A)", "T2 sequence": "T1 sequence with E685A"}, "[3]": {"target": "T3, GFP-Pif1 K387A (Saccharomyces cerevisiae, UniProt P07271 40-859, K387A)", "T3 sequence": "T1 sequence with K348A"}}, "note": "Substitutions are numbered along the chain they refer to.", "data": [{"binder": "GCTAGCAGTAGCCAGCATCGAACGTACGATCGGTAACGTA (ssDNA)", "note": "[40-nt ssDNA]", "values": [{"measurement": "Kd", "setting": "[1]", "result": "12.6 ± 3.81", "unit": "nM"}, {"measurement": "Kd", "setting": "[2]", "result": 19, "unit": "nM"}, {"measurement": "Kd", "setting": "[3]", "result": 29, "unit": "nM"}]}]}
